Where two headings read alike, the source gives them in different places.
Key:
[1] = Endotoxin adsorption on coated Eupergit beads (LAL assay); settings: peptide/protein immobilized on Eupergit beads, 50 UI/mL LPS, 0–150 min, room temperature, vs HSA- and rshCD5-coated controls, preliminary
Description: CD6.PD1 and CD6.PD2 high affinity (and also CD6.PD3) to LPS and LTA makes these peptides suitable candidates for new supportive non-antibiotic strategies against sepsis. One such possibility would be the adsorption of circulating bacterial toxins by CD6-derived peptides covalently coupled to a solid phase. Preliminary results obtained by incubating an endotoxin solution (50 UI/mL LPS) with Eupergit® beads coated with different CD6-derived peptides (CD6.PD2 and CD6.PD3) or proteins (HSA, rshCD5, and rshCD6) for different periods of time support this approach (Figure S2 in Supplementary Material). […]
Supplementary Figure S1. Binding of rshCD6 protein, and CD6 (CD6.PD1, CD6.PD2, and CD6.PD3) and DMBT-1/SAG (pbs1)-derived peptides to LPS and LTA determined by tryptophan fluorescence. […] Peptide samples (with and without either Re-LPS or LTA) and blank samples (Re-LPS or LT A alone) were ex cited at 295 nm, and the emission spectra recorded from 300 to 400 nm. Results are expressed as the change in peptide fluorescence ( ΔF) at the wavelength of the emission maxima (353 nm for the peptides and 337 nm for rshCD6 protein) in the presence and absence of either Re- LPS or LT A. Results are means ± SD of 3 experiments. Peptide fluorescence changes at 353 nm were fitt ed to the Hill equation. […]

[2] = Solid phase binding assay (ELISA); set-up: species or system E. coli O111:B4; settings: biotin-labeled peptides/proteins 5–20 µg/mL, overnight 4°C, HRP-streptavidin/TMB, OD 405–620 nm
Description: (§1) 96-well microtiter plates (Nunc, Roskilde, Denmark) were coated overnight at 4°C with 5 µg/mL of purified LPS (from E. coli O111:B4, Sigma L2630) or LTA (from S. aureus, Sigma L2515) in PBS and then incubated for 2 h at room temperature in blocking solution (20 mM Tris-HCl pH 7.4 plus 0.05% Tween 20 and 1% BSA). Biotin-labeled peptides/proteins (2.5–20 µg/mL) were added and incubated overnight at 4°C in blocking solution. After extensive washing, bound peptides/proteins were detected by the addition of horseradish peroxidase-labeled streptavidin (1:5,000 dilution; DAKO) for 1 h at room temperature. Color was developed by adding 3,3’,5,5’-tetramethylbenzidine liquid substrate (Sigma) and optical density read at 405–620 nm.
(§2) Figure 3 Analysis of the direct binding characteristics of CD6-derived peptides to purified pathogen-associated molecular patterns (PAMPs) from Gram-negative and Gram-positive origin. […] Following overnight incubation at 4°C bound peptides or proteins were developed by addition of horseradish peroxidase–streptavidin and 3,3’,5,5’-tetramethylbenzidine substrate and further readings at OD 405–620 nm. Results are expressed as mean ± SD of duplicates from one representative experiment of three performed. […] (C) Apparent Kd values and Hill coefficients for the binding of peptides and proteins in study to LPS and LTA determined by tryptophan fluorescence. […]

[3] = Intrinsic (tryptophan) fluorescence binding; set-up: species or system Salmonella minnesota serotype Re 595; settings: excitation 295 nm, peptide/protein 10 µg/mL in PBS pH 7.2, Hill equation fit, mean ± SD of three experiments, read-out: Re-LPS Kd ± σ (apparent Kd)
Description: (§3) To explore the ability of different peptides/proteins to bind LTA (Mr = 14,000, from S. aureus; Sigma) and rough LPS (Re-LPS, Mr = 2,500, from Salmonella minnesota serotype Re 595; Sigma), binding studies were carried out in an AB2 spectrofluorometer with a thermostated cuvette holder (±0.1°C), using 5 mm × 5 mm path length quartz cuvettes as described ([30]). Re-LPS concentration was assessed by quantification of 2-keto-3-deoxyoctulosonic acid ([31]). Peptide/protein samples (10 µg/mL) were titrated with different amounts of a stock solution of either LTA or Re-LPS in phosphate buffered saline (PBS) pH 7.2, and the Trp fluorescence emission spectra recorded with excitation at 295 nm. The fluorescence intensity readings were corrected for the dilution caused by […]. […] The apparent dissociation constant (Kd) of peptide/protein–ligand complexes were obtained by non-linear least-squares fitting to the Hill equation of the change in peptide fluorescence at 353 nm with the amount of added LTA or Re-LPS ([31]): ΔF/ΔFmax = [L]^n/([L]^n + Kd), where ΔF is the change in fluorescence intensity at 353 nm relative to the intensity of free peptide; ΔFmax is the change in fluorescence intensity at saturating LTA or Re-LPS concentrations; [L] is the molar concentration of free ligand; and n is the Hill coefficient. […]

[4] = Intrinsic (tryptophan) fluorescence binding; set-up: species or system S. aureus; settings: excitation 295 nm, peptide/protein 10 µg/mL in PBS pH 7.2, Hill equation fit, mean ± SD of three experiments, read-out: LTA Kd ± σ (apparent Kd)
Description: as §3

[5] = Solid phase binding assay (ELISA); set-up: species or system S. aureus; settings: biotin-labeled peptides/proteins 5–20 µg/mL, overnight 4°C, HRP-streptavidin/TMB, OD 405–620 nm
Description: as §1, §2

[6] = target: the molecule itself; experiment: dynamic light scattering; peptide alone, 10 µg/mL in PBS, 25°C, Zetasizer Nano S; hydrodynamic diameter of the particles in solution

Molecule	Endotoxin levels after incubation with coated beads [1]	Binding to solid-phase bound LPS [2]	Kd [3] [nM]	Kd [4] [nM]	Binding to solid-phase bound LTA [5]	binding result [6]
rshCD6: recombinant soluble human CD6 ectodomain (protein, UniProt P30203 18-402, looked up, extracellular domain, recombinant soluble human CD6 ectodomain) extracellular domain: HPSPAPPDQLNTSSAESELWEPGERLPVRLTNGSSSCSGTVEVRLEASWEPACGALWDSRAAEAVCRALGCGGAEAASQLAPPTPELPPPPAAGNTSVAANATLAGAPALLCSGAEWRLCEVVEHACRSDGRRARVTCAENRALRLVDGGGACAGRVEMLEHGEWGSVCDDTWDLEDAHVVCRQLGCGWAVQALPGLHFTPGRGPIHRDQVNCSGAEAYLWDCPGLPGQHYCGHKEDAGAVCSEHQSWRLTGGADRCEGQVEVHFRGVWNTVCDSEWYPSEAKVLCQSLGCGTAVERPKGLPHSLSGRMYYSCNGEELTLSNCSWRFNNSNLCSQSLAARVLCSASRSLHNLSTPEVPASVQTVTIESSVTVKIENKESRELMLL	reduced endotoxin levels	dose-dependent binding	630 ± 10	11 ± 4	dose-dependent binding	–
GQVEVHFRGVW (source: synthetic peptide, manufactured by ProteoGenix (>80% purity)) [CD6.PD3 peptide]	–	–	–	–	–	binds
rshCD5: recombinant soluble human CD5 protein, negative control (protein, UniProt P06127 25-372, looked up, extracellular domain, recombinant soluble human CD5 protein, negative control) extracellular domain: RLSWYDPDFQARLTRSNSKCQGQLEVYLKDGWHMVCSQSWGRSSKQWEDPSQASKVCQRLNCGVPLSLGPFLVTYTPQSSIICYGQLGSFSNCSHSRNDMCHSLGLTCLEPQKTTPPTTRPPPTTTPEPTAPPRLQLVAQSGGQHCAGVVEFYSGSLGGTISYEAQDKTQDLENFLCNNLQCGSFLKHLPETEAGRAQDPGEPREHQPLPIQWKIQNSSCTSLEHCFRKIKPQKSGRVLALLCSGFQPKVQSRLVGGSSICEGTVEVRQGAQWAALCDSSSARSSLRWEEVCREQQCGSVNSYRVLDAGDPTSRGLFCPHQKLSQCHELWERNSYCKKVFVTCQDPNP	–	no significant binding	–	–	no significant binding	–

From article PMC5906529, “Conserved Bacterial-Binding Peptides of the Scavenger-Like Human Lymphocyte Receptor CD6 Protect From Mouse Experimental Sepsis” (Frontiers in Immunology, 2018)
